# In patent publication US20260139057A1 (University of California, published 2026):
# Columns and labels:
# [1] = target: T1, human integrin αvβ8 on transfected cells (CHO cells stably transfected; HEK 293 cells stably expressing αvβ8) (human, UniProt P06756 31-1048; P26012 43-769); test: flow cytometry on CHO cells expressing human αvβ8 fixed in 2% buffered formalin for 15 min, antibody titrated, hyperbolic least-squares fit (m3 = KD); curves on D00025 [Cont.]
# T1 construct: whole, on cells; also called CHO αvβ8 cells; αvβ8 expressing CHO cells
# Procedure: (§1) FIG. 17: Characterization of cell surface binding of humanized affinity optimized anti-αvβ8 antibodies. The cell surface binding affinities of H4C8, H4G9, H4C10, H4G8 compared to HuC6D4F12 expressed as IgG4 (S228P to prevent arm exchange, R409K and L445P to reduce aggregation and to promote stability). […] Cell surface affinity was determined using the least-squares fit model based on the hyperbolic equation y=m1+m2*m0/(m3+m0), where y=MFI at different avb8 concentrations; m0=αvβ8 concentration; m1=MFI with no αvβ8; m2=MFI at saturation; and m3=KD.
# (§2) FIG. 18: Binding characteristics of H4C8 of formalin fixed αvβ8 compared to HuC6D4F12 or ADWA11 2.4 (from Pat no. US2020/0079855 A1). CHO αvβ8 expressing cells were fixed in 2% buffered formalin in PBS for 15 min at RT and then stained at the indicated concentrations as described in FIG. 17. The binding affinities to unfixed or formalin fixed cells is shown. Cell surface affinity was determined using the least-squares fit model based on the hyperbolic equation y=m1+m2*m0/(m3+m0), where y=MFI at different αvβ8 concentrations; m0=αvβ8 concentration; m1=MFI with no αvβ8; m2=MFI at saturation; and m3=KD.
# [2] = target: T2, recombinant human integrin αvβ8 ectodomain (human, UniProt P06756 31-992; P26012 43-681); test: cell-based or functional assay
# [3] = target: T1, human integrin αvβ8 on transfected …; test: flow cytometry on unfixed CHO cells expressing human αvβ8, antibody titrated, hyperbolic least-squares fit (m3 = KD); curves on D00025 [Cont.]
# Procedure: as §1, §2
# [4] = target: T2, recombinant human integrin αvβ8 …; test: KinExA, solution-based affinity; antigen form not stated
# Source text: Samples with serial dilutions are drawn over solid-phase beads coupled with one binding partner to capture the complimentary binding molecule, which is detected by flow of fluorophore-labeled antibody solution binding to a separate epitope on the same molecule being measured. Signals are used to calculate free concentration in solution after equilibrium is reached (i.e. to determine binding affinity KD), or under pre-equilibrium conditions over time (i.e. to determine binding kinetics). Free antigen remaining in solution at equilibrium for varying initial antibody concentrations in constant initial concentration of antigen as determined by the KinExA software, based on optimized least-squares fitting to a reversible binding equation.
# A Kinetic Exclusion Assay (KinExA®, Sapidyne Instruments, Inc., Boise, ID) was used to measure the binding affinity of H4C8 (Seq ID NOs. 34, 35) produced with the CH1-CH3 domain from IgG4 (Seq ID NO: 59). […] Samples with serial dilutions are drawn over solid-phase beads coupled with one binding partner to capture the complimentary binding molecule, which is detected by flow of fluorophore-labeled antibody solution binding to a separate epitope on the same molecule being measured. […]
# [5] = target: T3, integrin αvβ6 ectodomain (immobilized) (human, UniProt P06756 31-992; P18564 22-709); test: ELISA on immobilized integrin ectodomains plated at 1 µg/ml, blocked with 1% BSA
# T3 construct: extracellular domain; Bought from R&D Systems or made in ExpiCHO cells; also called immobilized human αvβ6
# Procedure: (§3) FIG. 20: H4C8 maintains ability to block αvβ8-mediated TGF-β activation similar to HuC6D4F12 while maintaining specificity for αvβ8. A) Shown are inhibition curves for the indicated antibody abilities to block the ability of immobilized human αvβ8 to activate human L-TGF-β presented on the cell surface of TMLC by GARP. The assays were performed exactly as described in (Seed et al, Sci Immunol, 2021 and Campbell, et al, Cell 2019). The estimated ED50 values are shown. The antibodies used were HuC6D4 IgG2a, HuC6D4F12 IgG2a or H3.H12, H4C8 or H4C8m (murine VL Fr4) as human IgG4. B) The specificity of H4C8 was tested against immobilized ectodomains of αvβ1, αvβ3, αvβ5, αvβ6 and αvβ8 (either purchased from R &D systems or produced in ExpiCHO cells. All ectodomains were plated at 1 μg/ml and after washing, wells were blocked with 1% BSA. The indicated antibodies (either human IgG4 isotype or H4C8 IgG4).
# [6] = target: T4, integrin αvβ1 ectodomain (immobilized) (Homo sapiens (Human), UniProt P06756 31-992; P05556 21-728); test: as above
# T4 construct: R&D Systems; copies: 1 + 1
# Procedure: as §3
# [7] = target: T5, integrin αvβ3 ectodomain (immobilized) (Homo sapiens (Human), UniProt P06756 31-992; P05106 27-718); test: as above
# T5 construct: Bought from R&D Systems or made in ExpiCHO cells; copies: 1 + 1
# Procedure: as §3
# [8] = target: T6, integrin αvβ5 ectodomain (immobilized) (Homo sapiens (Human), UniProt P06756 31-992; P18084 24-719); test: as above
# T6 construct: R&D Systems; copies: 1 + 1
# Procedure: as §3
# [9] = target: T2, recombinant human integrin αvβ8 …; test: cell-based or functional assay; remark: listed apart in the source
# [10] = target: T1, human integrin αvβ8 on transfected …; test: flow cytometry, surface binding to CHO αvβ8 cells
# T1 sequence (P06756 31-1048, chain 1 of 2): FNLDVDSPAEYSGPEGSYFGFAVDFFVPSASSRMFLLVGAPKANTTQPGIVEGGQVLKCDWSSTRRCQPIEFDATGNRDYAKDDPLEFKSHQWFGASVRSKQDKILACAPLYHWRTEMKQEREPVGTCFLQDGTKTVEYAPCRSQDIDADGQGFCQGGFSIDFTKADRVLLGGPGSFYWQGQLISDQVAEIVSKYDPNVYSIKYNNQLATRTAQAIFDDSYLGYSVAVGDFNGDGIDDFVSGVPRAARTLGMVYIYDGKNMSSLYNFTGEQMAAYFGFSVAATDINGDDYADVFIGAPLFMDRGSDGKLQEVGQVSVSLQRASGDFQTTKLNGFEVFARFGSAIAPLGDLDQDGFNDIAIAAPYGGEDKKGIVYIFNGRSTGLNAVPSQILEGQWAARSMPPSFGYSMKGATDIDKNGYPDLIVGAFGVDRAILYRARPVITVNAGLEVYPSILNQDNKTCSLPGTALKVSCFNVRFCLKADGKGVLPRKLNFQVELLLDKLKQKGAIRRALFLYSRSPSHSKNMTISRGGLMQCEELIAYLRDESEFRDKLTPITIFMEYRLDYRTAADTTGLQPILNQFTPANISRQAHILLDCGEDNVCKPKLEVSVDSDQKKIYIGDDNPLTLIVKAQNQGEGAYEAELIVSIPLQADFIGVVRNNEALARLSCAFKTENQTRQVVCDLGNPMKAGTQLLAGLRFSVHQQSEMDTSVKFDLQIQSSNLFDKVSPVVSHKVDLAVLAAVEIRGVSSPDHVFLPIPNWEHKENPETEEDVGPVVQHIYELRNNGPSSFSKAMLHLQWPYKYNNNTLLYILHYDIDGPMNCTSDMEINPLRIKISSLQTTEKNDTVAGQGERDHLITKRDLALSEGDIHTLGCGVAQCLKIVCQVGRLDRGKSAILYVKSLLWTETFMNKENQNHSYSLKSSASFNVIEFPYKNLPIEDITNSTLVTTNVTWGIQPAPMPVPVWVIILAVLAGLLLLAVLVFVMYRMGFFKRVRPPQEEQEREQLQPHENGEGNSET
# T1 sequence (P26012 43-769, chain 2 of 2): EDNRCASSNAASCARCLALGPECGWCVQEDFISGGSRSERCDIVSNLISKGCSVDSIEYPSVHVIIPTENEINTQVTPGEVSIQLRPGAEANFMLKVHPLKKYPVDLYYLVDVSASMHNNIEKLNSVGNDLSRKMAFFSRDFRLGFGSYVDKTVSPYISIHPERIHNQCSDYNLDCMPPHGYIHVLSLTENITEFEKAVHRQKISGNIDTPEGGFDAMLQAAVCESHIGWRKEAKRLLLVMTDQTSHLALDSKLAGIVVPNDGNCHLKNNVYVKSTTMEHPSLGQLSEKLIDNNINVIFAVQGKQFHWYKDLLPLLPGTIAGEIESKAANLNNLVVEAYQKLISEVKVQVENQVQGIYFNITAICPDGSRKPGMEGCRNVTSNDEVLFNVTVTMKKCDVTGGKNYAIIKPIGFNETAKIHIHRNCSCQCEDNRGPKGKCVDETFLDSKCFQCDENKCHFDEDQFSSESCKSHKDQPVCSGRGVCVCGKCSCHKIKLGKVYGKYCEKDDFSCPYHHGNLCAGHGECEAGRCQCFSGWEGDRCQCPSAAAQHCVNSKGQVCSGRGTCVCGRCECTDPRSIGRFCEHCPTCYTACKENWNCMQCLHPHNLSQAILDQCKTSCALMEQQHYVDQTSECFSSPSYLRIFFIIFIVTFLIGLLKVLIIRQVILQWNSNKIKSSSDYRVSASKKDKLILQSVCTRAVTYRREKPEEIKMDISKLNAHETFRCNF
# T2 sequence (P06756 31-992 limits assumed, chain 1 of 2): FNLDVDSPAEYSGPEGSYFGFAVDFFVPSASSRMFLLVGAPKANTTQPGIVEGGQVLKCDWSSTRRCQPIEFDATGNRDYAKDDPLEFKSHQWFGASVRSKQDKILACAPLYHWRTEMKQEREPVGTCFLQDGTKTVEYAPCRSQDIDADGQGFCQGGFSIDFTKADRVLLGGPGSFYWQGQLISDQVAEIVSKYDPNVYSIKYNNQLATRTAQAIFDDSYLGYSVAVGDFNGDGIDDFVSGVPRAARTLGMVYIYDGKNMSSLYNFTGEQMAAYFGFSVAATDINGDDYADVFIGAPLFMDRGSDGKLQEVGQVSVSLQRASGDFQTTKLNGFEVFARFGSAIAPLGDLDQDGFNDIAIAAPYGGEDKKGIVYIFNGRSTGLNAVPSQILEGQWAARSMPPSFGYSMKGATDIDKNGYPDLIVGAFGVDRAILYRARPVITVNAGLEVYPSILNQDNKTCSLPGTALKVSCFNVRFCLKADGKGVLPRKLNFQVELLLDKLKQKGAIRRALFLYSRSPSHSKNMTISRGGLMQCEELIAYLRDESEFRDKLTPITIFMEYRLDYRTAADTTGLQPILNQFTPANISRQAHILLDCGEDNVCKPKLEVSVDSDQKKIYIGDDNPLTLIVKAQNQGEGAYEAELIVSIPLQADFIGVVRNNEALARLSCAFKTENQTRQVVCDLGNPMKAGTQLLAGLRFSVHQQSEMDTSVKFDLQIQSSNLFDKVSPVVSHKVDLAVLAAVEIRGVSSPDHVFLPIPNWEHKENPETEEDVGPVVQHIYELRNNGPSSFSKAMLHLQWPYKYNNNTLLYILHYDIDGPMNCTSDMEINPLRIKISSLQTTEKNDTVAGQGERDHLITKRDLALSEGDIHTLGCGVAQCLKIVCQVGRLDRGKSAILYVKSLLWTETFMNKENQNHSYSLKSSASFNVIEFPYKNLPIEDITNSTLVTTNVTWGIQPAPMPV
# T2 sequence (P26012 43-681 limits assumed, chain 2 of 2): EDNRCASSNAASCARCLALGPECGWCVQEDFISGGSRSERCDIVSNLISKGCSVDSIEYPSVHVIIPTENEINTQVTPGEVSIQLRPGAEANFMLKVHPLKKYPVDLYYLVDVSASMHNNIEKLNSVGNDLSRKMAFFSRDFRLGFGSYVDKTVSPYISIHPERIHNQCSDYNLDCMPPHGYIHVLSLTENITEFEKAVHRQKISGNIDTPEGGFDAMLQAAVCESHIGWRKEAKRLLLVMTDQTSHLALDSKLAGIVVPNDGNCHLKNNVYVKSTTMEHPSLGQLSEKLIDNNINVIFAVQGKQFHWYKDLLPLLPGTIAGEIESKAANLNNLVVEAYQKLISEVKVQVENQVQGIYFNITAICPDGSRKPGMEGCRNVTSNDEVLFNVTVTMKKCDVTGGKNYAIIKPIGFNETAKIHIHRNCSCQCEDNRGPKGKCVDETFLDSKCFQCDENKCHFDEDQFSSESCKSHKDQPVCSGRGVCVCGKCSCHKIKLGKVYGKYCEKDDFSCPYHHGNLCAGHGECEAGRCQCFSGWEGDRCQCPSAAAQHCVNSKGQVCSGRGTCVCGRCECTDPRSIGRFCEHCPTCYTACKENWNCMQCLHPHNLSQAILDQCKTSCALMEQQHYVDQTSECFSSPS
# T3 sequence (P06756 31-992, chain 1 of 2): as the sequence (P06756 31-992 limits assumed, chain 1 of 2) above
# T3 sequence (P18564 22-709, chain 2 of 2): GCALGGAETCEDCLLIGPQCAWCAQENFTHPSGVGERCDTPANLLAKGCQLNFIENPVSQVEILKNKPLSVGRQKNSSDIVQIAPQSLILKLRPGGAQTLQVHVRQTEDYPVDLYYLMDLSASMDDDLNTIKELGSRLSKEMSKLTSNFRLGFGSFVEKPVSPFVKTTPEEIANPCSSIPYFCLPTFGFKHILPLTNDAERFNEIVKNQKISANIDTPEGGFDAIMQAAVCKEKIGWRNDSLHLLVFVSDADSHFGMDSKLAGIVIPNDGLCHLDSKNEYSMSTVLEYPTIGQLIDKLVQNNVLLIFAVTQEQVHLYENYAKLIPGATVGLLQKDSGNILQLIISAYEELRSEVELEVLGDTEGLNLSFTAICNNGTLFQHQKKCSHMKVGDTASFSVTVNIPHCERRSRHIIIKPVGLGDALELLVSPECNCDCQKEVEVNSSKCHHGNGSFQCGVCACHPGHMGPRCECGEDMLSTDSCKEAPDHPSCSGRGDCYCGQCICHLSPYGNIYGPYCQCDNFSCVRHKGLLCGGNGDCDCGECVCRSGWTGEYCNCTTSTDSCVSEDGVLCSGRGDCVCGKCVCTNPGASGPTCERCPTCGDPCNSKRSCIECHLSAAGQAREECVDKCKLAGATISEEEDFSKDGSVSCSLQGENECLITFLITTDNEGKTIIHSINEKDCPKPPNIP
# T6 sequence (P06756 31-992 limits assumed, chain 1 of 2): as the sequence (P06756 31-992 limits assumed, chain 1 of 2) above
# T6 sequence (P18084 24-719 limits assumed, chain 2 of 2): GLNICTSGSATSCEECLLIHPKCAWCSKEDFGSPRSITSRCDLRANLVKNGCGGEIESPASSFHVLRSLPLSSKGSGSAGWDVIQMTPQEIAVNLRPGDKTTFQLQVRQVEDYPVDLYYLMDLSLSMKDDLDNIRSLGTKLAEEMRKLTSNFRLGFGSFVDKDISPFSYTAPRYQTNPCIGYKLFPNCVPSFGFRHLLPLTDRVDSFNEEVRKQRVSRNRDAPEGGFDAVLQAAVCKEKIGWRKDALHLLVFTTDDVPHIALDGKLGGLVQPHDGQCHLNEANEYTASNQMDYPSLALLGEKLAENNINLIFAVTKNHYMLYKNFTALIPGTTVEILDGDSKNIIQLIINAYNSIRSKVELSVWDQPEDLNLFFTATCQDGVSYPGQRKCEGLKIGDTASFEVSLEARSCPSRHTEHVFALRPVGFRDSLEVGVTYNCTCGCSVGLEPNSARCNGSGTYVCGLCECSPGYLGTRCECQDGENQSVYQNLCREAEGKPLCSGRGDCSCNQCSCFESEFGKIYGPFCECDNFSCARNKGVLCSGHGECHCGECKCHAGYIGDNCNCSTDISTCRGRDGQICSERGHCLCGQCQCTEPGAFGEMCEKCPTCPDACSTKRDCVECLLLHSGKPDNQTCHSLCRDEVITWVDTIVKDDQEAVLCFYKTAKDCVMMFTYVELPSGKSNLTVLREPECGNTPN
Kd [1] [nM],EC50 of inhibition of αvβ8-mediated TGF-β activation [2] [nM],Kd [3] [nM],Kd [4] [nM],binding result [5],binding result [6],binding result [7],binding result [8],"ED50 of the inhibition of αvβ8-mediated TGF-β activation (immobilized αvβ8, TMLC GARP/L-TGF-β reporter cells) [9] [µg/mL]",fold lower affinity than F12 mouse IgG2a [10] [fold],Binder
3.6,100,2.6,0.00707,no binding,no binding,no binding,no binding,0.01,,"H4C8 human IgG4 (antibody, V domains shown, also called H4C8 IgG4) VH: QVQLVQSGAEVKKPGASVKVSCKVSGYTLTRQSMHWVRQAPGKGLEWMGRINTETGEPTYAQKFQGRVTMTQDTSTDTAYMELSSLRSEDTAVYFCAIFYYGRDTWGQGTTVTVSS VL: EIVMTQSPATLSVSPGERVTLSCRSSQSLLHSRSRKNYLAWYQQKPGQAPRLLIYWASTRETGVPARFSGSGSGTEFTLTISSLQSEDFAVYYCKQSYNLLSFGQGTKVEIKR"
,,,,,,,,,70,"Clone H1.1 as human IgG4 (antibody, V domains shown) VH: QVQLVQSGAEVKKPGASVKVSCKVSGYTLTKLSMHWVRQAPGKGLEWMGRINTEDGEPIYAQKFQGRVTMTEDTSTDTAYMELSSLRSEDTAVYYCAIFYYGRDSWGQGTTLTVSS VL: EIVMTQSPATLSVSPGERATLSCRASQSLLHSRTRKNYLAWYQQKPGQAPRLLIYWASTRATGIPARFSGSGSGTEFTLTISSLQSEDFAVYYCKQSYNLLSFGQGTVLEIKR"
